Assay [1] concerns the target T1, recombinant human GREM1 (hGREM1-His; C-terminal 10His tagged, R&D, #5190-GR) (human, UniProt O60565 25-184, limits assumed).
T1 sequence: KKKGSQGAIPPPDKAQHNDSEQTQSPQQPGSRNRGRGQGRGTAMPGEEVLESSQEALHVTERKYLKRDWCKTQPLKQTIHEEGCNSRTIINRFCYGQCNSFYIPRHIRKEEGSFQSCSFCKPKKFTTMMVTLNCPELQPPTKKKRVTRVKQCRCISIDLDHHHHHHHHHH
In words: cell-based or functional assay.

Assay [2] deals with T1, recombinant human GREM1 (hGREM1-His; …). In words: cell-based or functional assay. This is another data set of the same source.
Assay [3] has the same target. Description: BLI Octet, mAb captured, 100 nM GREM1.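 Further: octet Red96 biolayer interferometry at 25 °C in pH 7.4 HEPES saline buffer, antibodies held on anti-human IgG Fc capture biosensors, then exposed to GREM1.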
The target is the same in assay [4]. In words: BLI Octet, mAb captured, 100 nM GREM1 + 5 uM heparin. (In BLI a coated tip is dipped into the sample, and binding shifts an interference pattern.)
In assay [5] the target is T2, human GREM1 (hGREM1-His; SEQ ID NO: 595) (human, UniProt O60565 25-184).
T2 construct: also called biotin-hGREM1-His; recombinant human GREM1 protein
T2 sequence: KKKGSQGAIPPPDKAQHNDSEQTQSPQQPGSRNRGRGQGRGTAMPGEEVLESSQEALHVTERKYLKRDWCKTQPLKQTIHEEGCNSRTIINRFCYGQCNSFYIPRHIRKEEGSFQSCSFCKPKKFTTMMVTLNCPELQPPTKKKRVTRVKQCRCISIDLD
Description: SPR, Biacore T200, 25 C, mAb captured, hGREM1-His injected.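 Further: Heparin-supplemented HBS-EP+ used as running buffer, association and dissociation phases followed, Kd computed as koff divided by kon and half-life derived from koff.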 On the technique in general: In SPR one partner is held on a chip, and binding of the other changes the refractive index at the surface.

The target in assay [6] is T2, human GREM1 (hGREM1-His; SEQ ID NO: 595). Description: SPR, Biacore T200, 37 C, mAb captured, hGREM1-His injected.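 Further: HBS-EP running buffer containing heparin, association and dissociation phases tracked, KD computed as koff over kon and half-life derived from koff.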
Assay [7] deals with T1, recombinant human GREM1 (hGREM1-His; …). Description: BLI Octet, mAb captured, 100 nM GREM1 without vs with 5 uM heparin.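 Further: octet Red96 biolayer interferometry at 25 °C, antibodies captured on anti-human IgG Fc biosensors, association of GREM1 measured with versus without heparin in HEPES-buffered saline, pH 7.4.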
Assay [8] addresses T2, human GREM1 (hGREM1-His; SEQ ID NO: 595). In words: competition ELISA, biotin-hGREM1-His (100 pM) binding to coated hBMP4. In general terms: ELISA stands for enzyme-linked immunosorbent assay.

B1: H4H6248P (antibody, human IgG4, V domains shown)
VH: QVQLVESGGGVVQPGRSLRLSCAASGFTFSNYGMHWVRQVPGKGLEWVAVIWYDGSNKYYADSVKGRFTISRDNSKNTLYLQMNSVRAEDTAVYYCARDDYGDSPGFDYWGQGTLVTVSS
VL: EIVMTQSPATLSVSPGERATLSCRASQSVSSSLAWYQQKPGQAPRLLIYDASTRATGIPARFSGSGSGTEFTLTISGLQSEDFAVYYCQQYNNWPPWTFGQGTKVEIK
notes: H4H prefix = human IgG4 Fc
B1: the “IC50 [M], inhibition of hGREM1-His, W-20-17/BRE-luc luciferase (100 pM hBMP4, 10 nM hGREM1-His)” value (from here on “IC50 [M], inhibition of hGREM1-His”) in assay [1] worked out at 5.3e-10 M. Further, the “hGREM1-His Inhibition IC50, M; W-20-17 cell differentiation assay (alkaline phosphatase)” value in assay [2] turned out to be 5.6 nM. Moreover, in assay [3], the “Binding Signal with 30 sec Association” value stood at 0.21 nm and the “Binding Signal with 300 sec Association” value worked out at 0.42 nm. Besides, in assay [4], the “Binding Signal with 30 sec Association” value turned out to be 0.04 nm and the “Binding Signal with 300 sec Association” value came out at 0.37 nm. In assay [5], binding was put at a Kd of 1.54 nM; the koff (as a rule, a measure of how fast the partners let go of each other) turned out to be 7.73e-05 s⁻¹; the kon (as a rule, the second-order rate constant of association) was determined as 50300 M⁻¹ s⁻¹; the t1/2 is 149 min. Moreover, in assay [6], the Kd (in general, the equilibrium constant for the complex coming apart) was 5.69 nM; the koff worked out at 0.000487 s⁻¹; the kon turned out to be 85500 M⁻¹ s⁻¹; the t1/2 came to 24 min. Further, in assay [7], the “Reduction in Signal from Heparin at 30 sec” value (“Reduction … at 30 sec” for short) was 0.17 nm and the “Reduction in Signal from Heparin at 300 sec” value (“Reduction … at 300 sec” below) was 0.05 nm. Moreover, in assay [8], the “% blocked at maximum Ab tested (20 nM)” value worked out at 62% and the IC50 – broadly, the midpoint of a concentration-inhibition curve – turned out to be 0.21 nM.

B2: H4H6251P (antibody, human IgG4, V domains shown)
VH: QVQLVESGGGVVQPGKSLRLSCAASGFTFSRYGMHWVRQAPGKGLEWVAVIWYDGSNKYYADSVKGRFTISRDNSKNTLYLQMNSLRADDTAMYYCARDDYGDSPGFDFWGQGTLVTVSS
VL: EIVMTQSPATLSVSPGERATLSCRASQSVSSNLAWYQQKPGQAPRLLIYDASTRATGIPARFSGTGSGTEFTLTISSLQSEDFALYYCQQYDDWPPWTFGQGTKVEIK
notes: H4H prefix = human IgG4 Fc
Take B2: the “IC50 [M], inhibition of hGREM1-His” value in assay [1] is 6.3e-10 M. In addition, the “hGREM1-His Inhibition IC50, M; W-20-17 cell differentiation assay (alkaline phosphatase)” value in assay [2] was determined as 11 nM. Moreover, in assay [3], the “Binding Signal with 30 sec Association” value came out at 0.27 nm and the “Binding Signal with 300 sec Association” value was 0.45 nm. For the same molecule, in assay [4], the “Binding Signal with 30 sec Association” value is 0.03 nm and the “Binding Signal with 300 sec Association” value amounted to 0.36 nm. In assay [5], binding was put at a Kd of 23.1 nM, the koff was found to be 0.000652 s⁻¹, the kon came to 28200 M⁻¹ s⁻¹ and the t1/2 was 18 min. Moreover, in assay [6], binding was put at a Kd of 275 nM, the koff was determined as 0.00694 s⁻¹, the kon came to 25300 M⁻¹ s⁻¹ and the t1/2 came out at 2 min. In assay [7], the “Reduction … at 30 sec” value stood at 0.24 nm and the “Reduction … at 300 sec” value worked out at 0.09 nm. In addition, in assay [8], the “% blocked at maximum Ab tested (20 nM)” value came to 62% and the IC50 is 0.11 nM.

B3: H4H6256P (antibody, human IgG4, V domains shown)
VH: QVQLVESGGGVVQPGRSLRLSCAASGFTFSAYGMHWVRQGPGKGLEWVAVIWYDGSNKYYADSVKGRFTISRDNSKNTLYLQMNRLRAEDTAVYYCARDDYGDSPGFDHWGQGTLVTVSS
VL: EIVMTQSPATLSVSPGERATLSCRASQSVSSELAWYQQKPGQAPRLLLYGASTRATGIPARFSGSGSGTEFTLTISSLQSEDFAVYYCQQYSNWPPWTFGQGTKVEIK
notes: H4H prefix = human IgG4 Fc
For B3, the “IC50 [M], inhibition of hGREM1-His” value in assay [1] was 5.4e-10 M. Besides, the “hGREM1-His Inhibition IC50, M; W-20-17 cell differentiation assay (alkaline phosphatase)” value in assay [2] was found to be 5.7 nM. In assay [3], the “Binding Signal with 30 sec Association” value came to 0.2 nm and the “Binding Signal with 300 sec Association” value was 0.4 nm. Also, in assay [4], the “Binding Signal with 30 sec Association” value stood at 0.07 nm and the “Binding Signal with 300 sec Association” value is 0.38 nm. Besides, in assay [5], the affinity, expressed as Kd, was 1.19 nM; the koff amounted to 0.000107 s⁻¹; the kon worked out at 90000 M⁻¹ s⁻¹; the t1/2 stood at 108 min. In assay [6], this molecule displayed a Kd of 4.08 nM, a koff of 0.000466 s⁻¹, a kon of 114000 M⁻¹ s⁻¹ and a t1/2 of 25 min. Further, in assay [7], the “Reduction … at 30 sec” value worked out at 0.13 nm and the “Reduction … at 300 sec” value was found to be 0.02 nm. Further, in assay [8], the “% blocked at maximum Ab tested (20 nM)” value was 75% and the IC50 is 0.087 nM.

B4: H4H6260P (antibody, human IgG4, V domains shown)
VH: QVQLVESGGGVVQPGRSLRLSCAASGFTFSTYGMHWVRQAPGKGLEWVAIIWYDGSNYYYADSVKGRFTISRDNSKNTLYLQMNSLRAEDTAVYYCAREDRNDVFDIWGQGTMVTVSS
VL: EIVLTQSPATLSLSPGERATLSCRASQSVSSFLAWYQQKPGQAPRLLIYDSSNRATGIPARFSGSGSGTDFTLTISSLEPEDFAVYYCQQLSNWPPITFGQGTRLEIK
notes: H4H prefix = human IgG4 Fc
On to B4, for which, in assay [1], the “IC50 [M], inhibition of hGREM1-His” value is 4.6e-10 M. For the same molecule, the “hGREM1-His Inhibition IC50, M; W-20-17 cell differentiation assay (alkaline phosphatase)” value in assay [2] was 3.3 nM. In assay [3], the “Binding Signal with 30 sec Association” value is 0.24 nm and the “Binding Signal with 300 sec Association” value came out at 0.42 nm. Also, in assay [4], the “Binding Signal with 30 sec Association” value came to 0.07 nm and the “Binding Signal with 300 sec Association” value is 0.37 nm. Also, in assay [5], the Kd is 0.669 nM, the koff was 6.51e-05 s⁻¹, the kon worked out at 97400 M⁻¹ s⁻¹ and the t1/2 was 177 min. In assay [6], this molecule displayed a Kd of 1.71 nM, a koff of 0.000285 s⁻¹, a kon of 166000 M⁻¹ s⁻¹ and a t1/2 of 41 min. Further, in assay [7], the “Reduction … at 30 sec” value amounted to 0.17 nm and the “Reduction … at 300 sec” value stood at 0.05 nm. In addition, in assay [8], the “% blocked at maximum Ab tested (20 nM)” value came out at 87% and the IC50 was less than 0.025 nM.

B5: H4H6252P (antibody, human IgG4, V domains shown)
VH: QVQLVESGGGVVQPGRSLRLSCAASGFTFSNYGMHWVRQAPGRGLEWVAVIWFDGSNKYYADSVKGRFTISRDNSKNTLYLQMNSLRSEDTAVYYCTRDDYGDYDYPFDYWGQGTLVTVSS
VL: DIQMTQSPSSLSASVGDRVTITCRASQGIRNDLGWYQQKPGKAPKRLIYAASSLQSGVPSRFSGSGSGTEFTLTISSLQPEDFATYYCLQYNTYPPFTFGPGTKVDIK
notes: H4H prefix = human IgG4 Fc; also called H4H6252S
On to B5, for which the “IC50 [M], inhibition of hGREM1-His” value in assay [1] was determined as 8.2e-10 M. Also, the “hGREM1-His Inhibition IC50, M; W-20-17 cell differentiation assay (alkaline phosphatase)” value in assay [2] was 6.1 nM. Also, in assay [3], the “Binding Signal with 30 sec Association” value was 0.23 nm and the “Binding Signal with 300 sec Association” value worked out at 0.44 nm. Also, in assay [4], the “Binding Signal with 30 sec Association” value came out at 0.04 nm and the “Binding Signal with 300 sec Association” value turned out to be 0.35 nm. In assay [5], this molecule showed a Kd of 1.02 nM, a koff of 7.58e-05 s⁻¹, a kon of 74600 M⁻¹ s⁻¹ and a t1/2 of 152 min. In assay [6], this molecule yielded a Kd of 4.14 nM, a koff of 0.000459 s⁻¹, a kon of 111000 M⁻¹ s⁻¹ and a t1/2 of 25 min. In assay [7], the “Reduction … at 30 sec” value was 0.19 nm and the “Reduction … at 300 sec” value worked out at 0.09 nm. Further, in assay [8], the “% blocked at maximum Ab tested (20 nM)” value is 53% and the IC50 came out at 0.19 nM.

Values taken from patent publication US20200157194A1 (Regeneron, published 2020).
